# Reference: IntAct's records for PubMed 16498409
# B1: ADP-ribosylation factor 1 (Saccharomyces cerevisiae), P11076 (parent)
# chain: MGLFASKLFSNLFGNKEMRILMVGLDGAGKTTVLYKLKLGEVITTIPTIGFNVETVQYKNISFTVWDVGGQDRIRSLWRHYYRNTEGVIFVVDSNDRSRIGEAREVMQRMLNEDELRNAAWLVFANKQDLPEAMSAAEITEKLGLHSIRNRPWFIQATCATSGEGLYEGLEWLSNSLKNST
# B2: ADP-ribosylation factor 1 (Saccharomyces cerevisiae), P11076 (parent)
# chain: B1 chain
# partner: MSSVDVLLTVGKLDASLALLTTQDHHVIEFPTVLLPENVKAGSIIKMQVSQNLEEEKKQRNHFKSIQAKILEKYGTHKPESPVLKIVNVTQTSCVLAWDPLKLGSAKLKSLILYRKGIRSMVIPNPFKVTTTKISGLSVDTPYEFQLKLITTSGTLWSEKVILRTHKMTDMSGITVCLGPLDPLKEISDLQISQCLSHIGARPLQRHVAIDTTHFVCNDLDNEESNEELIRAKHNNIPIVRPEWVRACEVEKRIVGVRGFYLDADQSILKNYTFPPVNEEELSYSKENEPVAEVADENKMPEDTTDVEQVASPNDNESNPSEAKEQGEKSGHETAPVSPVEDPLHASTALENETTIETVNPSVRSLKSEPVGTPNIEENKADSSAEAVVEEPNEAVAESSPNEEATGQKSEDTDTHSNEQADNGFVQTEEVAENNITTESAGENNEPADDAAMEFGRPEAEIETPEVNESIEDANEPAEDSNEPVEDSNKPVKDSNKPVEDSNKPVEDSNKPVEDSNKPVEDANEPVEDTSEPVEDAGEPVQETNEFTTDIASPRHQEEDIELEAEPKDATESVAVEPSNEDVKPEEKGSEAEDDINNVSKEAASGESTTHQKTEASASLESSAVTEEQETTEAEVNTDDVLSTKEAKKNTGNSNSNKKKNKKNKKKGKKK
# Variants of: B1
# Conditions: with glo3_yeast GLO3, P38682
# Chain of glo3_yeast GLO3, P38682 (P38682 whole entry): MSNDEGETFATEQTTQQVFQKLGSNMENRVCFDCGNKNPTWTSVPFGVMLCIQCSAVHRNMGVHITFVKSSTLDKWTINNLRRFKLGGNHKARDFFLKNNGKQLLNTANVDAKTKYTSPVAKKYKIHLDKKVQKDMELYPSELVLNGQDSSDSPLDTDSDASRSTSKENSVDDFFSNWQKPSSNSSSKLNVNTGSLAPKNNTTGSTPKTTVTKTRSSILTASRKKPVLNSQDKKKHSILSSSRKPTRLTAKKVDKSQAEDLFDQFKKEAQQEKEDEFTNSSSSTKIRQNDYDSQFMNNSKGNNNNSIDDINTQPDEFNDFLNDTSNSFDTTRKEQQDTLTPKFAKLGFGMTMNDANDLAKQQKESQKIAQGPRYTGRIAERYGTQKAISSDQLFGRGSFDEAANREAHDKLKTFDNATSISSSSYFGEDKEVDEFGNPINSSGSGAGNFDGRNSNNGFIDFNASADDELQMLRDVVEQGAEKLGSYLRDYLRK
row,Variant,effect of a mutation on the interaction
1,MGLFASKLFSNLFGNKEMRILMVGLDGAGKTTVLYKLKLGEVITTIPTIGFNVETVQYKNISFTVWDVGGLDRIRSLWRHYYRNTEGVIFVVDSNDRSRIGEAREVMQRMLNEDELRNAAWLVFANKQDLPEAMSAAEITEKLGLHSIRNRPWFIQATCATSGEGLYEGLEWLSNSLKNST [Q71L],increasing interaction

# Variants of: B2
# Conditions: with chs5_yeast CHS5, Q12114
row,Variant,effect of a mutation on the interaction
1,MGLFASKLFSNLFGNKEMRILMVGLDGAGKTTVLYKLKLGEVITTIPTIGFNVETVQYKNISFTVWDVGGLDRIRSLWRHYYRNTEGVIFVVDSNDRSRIGEAREVMQRMLNEDELRNAAWLVFANKQDLPEAMSAAEITEKLGLHSIRNRPWFIQATCATSGEGLYEGLEWLSNSLKNST [Q71L],increasing interaction
